Reference: PMC3277882, “Structure and Kinetic Stability of the p63 Tetramerization Domain” (Journal of Molecular Biology, 2012)

Key:
[1] = target: human p63 full-length tetramerization domain variant, p63(356–411) (human); experiment: native MS; nESI-MS of subunit exchange: equal amounts of 12C-14N and 13C-15N protein mixed, 10 μM each (monomer concentration), 500 mM ammonium acetate (pH 6.9), 37 °C; half-life of tetramer dissociation from kinetic modeling
[2] = target: human p63 tetramerization domain, p63(359–402) (human); experiment: crystal structure; p63(359–402), sitting drop at 17 °C, 10% polyethylene glycol 8000, 0.1 M Hepes (pH 7.5), 0.2 M Ca acetate; space group P422, one monomer in the asymmetric unit; 2.15 Å
[3] = target: human p63 tetramerization domain lacking the H2 helix, p63(359–388) (human); experiment: crystal structure; p63(359–388) SeMet, sitting drop at 17 °C, 30% polyethylene glycol 400, 0.1 M Hepes (pH 7.5), 0.2 M Mg chloride; space group P1, one tetramer in the asymmetric unit; 1.9 Å
[4] = target: the molecule itself; experiment: native MS; nESI-MS of subunit exchange: equal amounts of 12C-14N and 13C-15N protein mixed, 10 μM each (monomer concentration), 500 mM ammonium acetate (pH 6.9), 37 °C; half-life of tetramer dissociation from kinetic modeling
[5] = target: the molecule itself; experiment: as above; remark: listed apart in the source

In the case of “human p63 full-length tetramerization domain variant, p63(356–411) (domain or fragment)”, the half-life of the tetramer, t1/2 [1] is reported as 7 min and the stoichiometry N [1] is reported as 4.

With “human p63 tetramerization domain, p63(359–402) (domain or fragment)” the stoichiometry N [2] was 4.

For “human p63 tetramerization domain lacking the H2 helix, p63(359–388) (domain or fragment)”, the stoichiometry N [3] was 4.

B1: human p73 full-length tetramerization domain variant, p73(351–399) (domain or fragment)
chain: GSDEDTYYLQVRGRENFEILMKLKESLELMELVPQPLVDSYRQQQQLLQRP
notes: Gly-Ser dipeptide left at the N terminus by the cloning strategy (after thrombin cleavage); human p73 tetramerization domain, residues 351-399; In the subunit exchange experiment an unlabeled (12C-14N) and a uniformly 13C-15N labeled sample of the same construct were mixed; also called p73 tetramerization domain; not shown: His6, N-terminal, cleaved; lipoyl domain, N-terminal, cleaved
In the case of B1, the “stoichiometry N” value [4] is reported as 4 and the “half-life of the tetramer, t1/2” value [5] is reported as 77 ± 5 min.
